Measurements: article PMC3921932

Target: recombinant manganese superoxide dismutase (MnSOD) from Lactococcus lactis M4 (Lactococcus lactis M4) (UniProt P0A4J2)
Assay: SEC; Superose 12 HR 16/70 packed column, 20 mM phosphate buffer, 0.15 M NaCl, pH 7.0, 0.75 mL/min; calibrated with aprotinin, cytochrome c, carbonic anhydrase and BSA; estimated mass 63 kDa against 55.4 kDa theoretical for a dimer

stoichiometry N: 2
Substance: recombinant manganese superoxide dismutase (MnSOD) from Lactococcus lactis M4 (from UniProt P0A4J2 1-206) (enzyme)
